Measurements taken from PMC2255029, “UV-A-induced structural and functional changes in human lens deamidated αB-crystallin” (Molecular Vision, 2008).

Biological target: the molecule itself
Assay: cross-linking; UV-A irradiation (320-400 nm; 20 and 50 J/cm^2, about 5 °C, 50 mM phosphate buffer, pH 7.5) of the purified protein, then SDS-PAGE after treatment with 150 mM β-mercaptoethanol; 40 kDa species

Row | Protein | stoichiometry N
1 | wild type (WT) αB-crystallin (natural protein, human, UniProt P02511 1-175, looked up, αB-crystallin, human, 175 amino acid residues; cDNA cloned in plasmid pDIRECT; Oligomer; Also used after UV-A exposure (320-400 nm; 20 or 50 J/cm^2), which oxidises Met and/or Trp residues and partly degrades the protein; source: E. coli BL21 (DE3) pLysS, purified (DEAE-Sephacel, Butyl-Sepharose, size-exclusion HPLC)) MDIAIHHPWIRRPFFPFHSPSRLFDQFFGEHLLESDLFPTSTSLSPFYLRPPSFLRAPSWFDTGLSEMRLEKDRFSVNLDVKHFSPEELKVKVLGDVIEVHGKHEERQDEHGFISREFHRKYRIPADVDPLTITSSLSSDGVLTVNGPRKQVSGPERTIPITREEKPAVTAAPKK | 2
2 | αB-Asn78Asp deamidated mutant protein (natural protein, human, UniProt P02511 1-175, looked up, αB-crystallin, human, 175 amino acid residues; cDNA cloned in plasmid pDIRECT; Asn78 changed to Asp by site-directed mutagenesis; Mimics deamidation of Asn78; Also used after UV-A exposure; source: E. coli BL21 (DE3) pLysS, purified (DEAE-Sephacel, Butyl-Sepharose, size-exclusion HPLC)) MDIAIHHPWIRRPFFPFHSPSRLFDQFFGEHLLESDLFPTSTSLSPFYLRPPSFLRAPSWFDTGLSEMRLEKDRFSVDLDVKHFSPEELKVKVLGDVIEVHGKHEERQDEHGFISREFHRKYRIPADVDPLTITSSLSSDGVLTVNGPRKQVSGPERTIPITREEKPAVTAAPKK | 2
3 | αB-Asn146Asp deamidated mutant protein (natural protein, human, UniProt P02511 1-175, looked up, αB-crystallin, human, 175 amino acid residues; cDNA cloned in plasmid pDIRECT; Asn146 changed to Asp by site-directed mutagenesis; Mimics deamidation of Asn146; Also used after UV-A exposure; source: E. coli BL21 (DE3) pLysS, purified (DEAE-Sephacel, Butyl-Sepharose, size-exclusion HPLC)) MDIAIHHPWIRRPFFPFHSPSRLFDQFFGEHLLESDLFPTSTSLSPFYLRPPSFLRAPSWFDTGLSEMRLEKDRFSVNLDVKHFSPEELKVKVLGDVIEVHGKHEERQDEHGFISREFHRKYRIPADVDPLTITSSLSSDGVLTVDGPRKQVSGPERTIPITREEKPAVTAAPKK | 2
4 | αB-Asn78/146Asp deamidated double mutant protein (natural protein, human, UniProt P02511 1-175, looked up, αB-crystallin, human, 175 amino acid residues; cDNA cloned in plasmid pDIRECT; both Asn78 and Asn146 changed to Asp by site-directed mutagenesis; Mimics deamidation of Asn78 and Asn146; Also used after UV-A exposure; source: E. coli BL21 (DE3) pLysS, purified (DEAE-Sephacel, Butyl-Sepharose, size-exclusion HPLC)) MDIAIHHPWIRRPFFPFHSPSRLFDQFFGEHLLESDLFPTSTSLSPFYLRPPSFLRAPSWFDTGLSEMRLEKDRFSVDLDVKHFSPEELKVKVLGDVIEVHGKHEERQDEHGFISREFHRKYRIPADVDPLTITSSLSSDGVLTVDGPRKQVSGPERTIPITREEKPAVTAAPKK | 2
